Patent US20120141463A1 (AstraZeneca / MedImmune, published 2012)
No end group written: not given here. Ahx = NCCCCCC(=O)O

How the values were obtained:
[1] = target: T1, cεmx.migis peptide (human, C-terminal -(Ahx)(K-Biot): aminohexanoic acid linker followed by a biotinylated lysine); assay: inhibition phage ELISA: cεmx.migis peptide on Neutravidin plate, phage with irrelevant IgG control or A1c IgG, anti-M13-HRP
T1 construct: also called peptide (ii); cεmx.migs peptide
T1 peptide: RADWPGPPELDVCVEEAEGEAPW

[2] = target: T2, ε-migis peptide (human); assay: peptide ELISA (Migis, cemx.migis, PIBP peptide); antibody concentration not shown
T2 construct: also called peptide (i); human ε-migis
T2 peptide: ELDVCVEEAEGEAPW-{Ahx-K(biotin)}

[3] = target: T3, peptide from phosphoinositide binding protein (human); assay: as above
T3 construct: also called peptide (vi); PIBP peptide
T3 peptide: TQLLCVEAFEGEEPW-{Ahx-K(biotin)}

[4] = target: T1, cεmx.migis peptide; assay: inhibition phage ELISA: cεmx.migis peptide on Neutravidin plate, phage with control IgG, A1c or B1, anti-M13-HRP
[5] = target: T4, mIgM on RPMI 1788 cells (human, UniProt P01871 1-474); assay: FACS, primary antibody plus secondary (Gt α Mu or G α Hu); % cells staining and MF
T4 construct: whole, on cells; Endogenous immunoglobulin of the cell line; light chain not described; also called IgM (RPMI 1788 cells); membrane IgM
T4 sequence (P01871 whole entry): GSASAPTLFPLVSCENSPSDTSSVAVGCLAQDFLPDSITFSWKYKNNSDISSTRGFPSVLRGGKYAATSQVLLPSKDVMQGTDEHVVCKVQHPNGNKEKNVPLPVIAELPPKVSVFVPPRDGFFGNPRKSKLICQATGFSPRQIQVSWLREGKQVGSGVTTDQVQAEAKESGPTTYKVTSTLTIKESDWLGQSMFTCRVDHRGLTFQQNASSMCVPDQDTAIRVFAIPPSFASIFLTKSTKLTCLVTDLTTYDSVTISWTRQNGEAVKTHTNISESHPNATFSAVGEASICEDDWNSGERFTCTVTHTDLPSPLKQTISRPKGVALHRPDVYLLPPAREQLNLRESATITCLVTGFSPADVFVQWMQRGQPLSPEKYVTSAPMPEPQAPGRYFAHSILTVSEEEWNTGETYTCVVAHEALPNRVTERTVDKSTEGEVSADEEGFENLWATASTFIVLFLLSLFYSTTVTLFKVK

B1: A1c antibody (antibody, V domains shown)
VH: EVQLLESGGGLVQPGGSLRLSCAASGFTFSFYSMLWVRQAPGKGLEWVSYIGPSGGKTYYADSVKGRFTISRDNSKNTLYLQMNSLRAEDTAMYYCARRYCSGGSCYFDYWGQGTLVTVSS
VL: DIQMTQSPSTLSASIGDRVTITCRASQSINSWLAWYQQKPGKGPDLLIYKASSLQSGVPSRFSGSGSGTEFTLTISSLQPDDFATYYCQQYSSWPLTFGGGTKVEIKR
notes: Human Fab phage clone converted to full IgG; also called anti ε-migis antibody A1c
[1]
  binding result: binds
[2]
  binding result: binds
[3]
  binding result: binds

B2: F4 antibody (antibody, V domains shown)
VH: EVQLLESGGGLVQPGGSLRLSCAASGFTFSNYGMFWVRQAPGKGLEWVSSIWPSGGNTMYADSVKGRFTISRDNSKNTLYLQMNSLRAEDTAVYYCARASYYGMDVWGQGTTVTVSS
VL: DIQMTQSPSSLSASIGDRVTITCRGSQNIGRYLNWYQHKPGKAPDLLVYAASSLRSGVPSRFSGSGSGRDFTLTISSLQPGDFATYYCQQSYSAPFTFGAGTKVDVKR
notes: Human Fab phage clone converted to full length IgG; also called clone F4
[4]
  binding result: binds

B3: D5 antibody (antibody, V domains shown)
VH: EVQLLESGGGLVQPGGSLRLSCAASGFTFSKYHMVWVRQAPGKGLEWVSSIGPSGGNTYYADSVKGRFTISRDNSKNTLYLQMNSLRAEDTATYYCARALGATFDYWGQGTLVTVSS
VL: DIQMTQSPLSLPVTLGQPASISCKSSQSLVYRDGITYLSWFQQRPGQSPRRLIYKVSNRDSGVPDRFSGSGSDSNFTLKISSVEAEDVGLYFCMQGSHWPFTFGPGTKVDIKR
notes: Fully human clone from the Dyax FAB-310 Fab phage library, converted to full length IgG (detected with an anti-human IgG1 Fc antibody); also called D5 IgG; clone D5
[4]
  binding result: binds
[2]
  binding result: no binding
[3]
  binding result: no binding
[5]
  binding result: no binding

B4: B1 antibody (antibody, V domains shown)
VH: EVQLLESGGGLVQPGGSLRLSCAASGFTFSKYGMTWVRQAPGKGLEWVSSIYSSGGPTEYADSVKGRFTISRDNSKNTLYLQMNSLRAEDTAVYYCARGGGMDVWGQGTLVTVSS
VL: DIQMTQSPVSLPVTLGQPASISCRSSHSLVYSHGGTYLNWFQQRPGRSPRRLIYQVSNRDSGVPDRFSGSGSDTDFTLQISRVEADDIGIYYCMQSTYWPYAFGQGTKLDIKR
notes: Human Fab phage clone converted to full IgG; also called CP1-B1
[4]
  binding result: binds
[2]
  binding result: no binding
[3]
  binding result: no binding
